Starred links: 1 amine or outer side, 2 acyl side, 3 side chain; linkers in the order of their positions; H or OH if unused. Non-standard residues stand in square brackets, D forms with d. Residues, ends and D or L forms follow the SMILES beside them. *: point of attachment. Dolaproine = CO[C@@H]([C@@H]1CCCN1)[C@@H](C)C(=O)O; Hexanoyl(6-maleimido) = O=C1C=CC(=O)N1CCCCCC(=O)*; Dil = CC[C@H](C)[C@H](NC)[C@@H](CC(=O)O)OC; PABC = O=C(OCc1ccc(N[*:1])cc1)[*:2]; X1 = C[C@@H](N*)[C@@H](O)c1ccccc1; Cit = NC(=O)NCCC[C@H](N)C(=O)O; NMeV = CN[C@H](C(=O)O)C(C)C
B1: W3195-1.53.1-p1-uIgG1L-MMAE (antibody, V domains shown)
VH: QVQLQESGPGLVKPSETLSLTCTVSGGSVISDNYYWTWVRQPPGKGLEFIGYIYYRGSTNYNPSLKNRVIISIDTSRNQFSLDLNSVTAADTAVYYCARDRRTGNSLPFDNWGQGTLVTVSS
VL: SYELTQPPSVSVSPGQTAQITCSGDKLGDKFASWYQQKSGQSPVVVIYQDNKRPSGFPERFSGSNSGNTATLTISGTQAMDEADYYCQAWDSSIVVFGGGTKLTVLG
modifications: MC-vc-PAB-MMAE conjugated to cysteine thiols after TCEP reduction (positions not stated); HIC-DAR 3.86 per antibody
notes: also called W3195-p1-MMAE; WBP3195-p1-ADC

Legend:
[1] = molecular target: T1, human P-cadherin expressed on cells (human, UniProt P22223 108-829); test: FACS on HCT-116 cells
T1 sequence (P22223 108-829): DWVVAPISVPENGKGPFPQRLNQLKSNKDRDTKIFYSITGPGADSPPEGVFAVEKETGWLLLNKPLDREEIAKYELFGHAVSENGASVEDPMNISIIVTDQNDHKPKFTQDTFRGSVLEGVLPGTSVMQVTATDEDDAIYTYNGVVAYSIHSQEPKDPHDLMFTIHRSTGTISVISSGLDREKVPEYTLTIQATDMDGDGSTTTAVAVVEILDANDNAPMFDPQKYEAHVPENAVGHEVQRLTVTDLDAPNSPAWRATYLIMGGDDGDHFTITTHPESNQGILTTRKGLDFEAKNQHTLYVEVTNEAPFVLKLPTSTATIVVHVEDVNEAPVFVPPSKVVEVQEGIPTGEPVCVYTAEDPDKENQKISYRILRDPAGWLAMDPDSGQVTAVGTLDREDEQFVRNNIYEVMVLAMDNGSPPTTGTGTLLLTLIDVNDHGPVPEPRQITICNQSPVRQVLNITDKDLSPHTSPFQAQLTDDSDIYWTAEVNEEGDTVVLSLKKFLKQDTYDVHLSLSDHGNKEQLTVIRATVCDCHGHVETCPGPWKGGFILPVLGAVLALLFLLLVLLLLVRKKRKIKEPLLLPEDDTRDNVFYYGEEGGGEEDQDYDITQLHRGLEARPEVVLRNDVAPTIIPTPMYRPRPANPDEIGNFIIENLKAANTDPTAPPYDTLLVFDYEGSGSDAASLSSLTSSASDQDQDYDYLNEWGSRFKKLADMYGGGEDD
Method: Binding of the ADCs to P-cadherin expressed on HCT-116 cells was determined by flow cytometry analysis using the same procedure as described above. […] 1×10⁵ cells/well (100 μL) were added to each well of a 96-well U-plate (Corning, #3799) and centrifuged at 1500 rpm (Eppendorf, #5810R) for 5 minutes before removing the supernatant. Antibodies serially diluted in 1% BSA/1×PBS (Ca+/Mg+) were added at 100 μL/well to the pelleted cells and incubated at 4° C. for 1 hour. […] Cells were washed two times with 180 μL/well of 1% BSA/1×PBS (Ca+/Mg+) by centrifugation at 1500 rpm for 5 minutes at 4° C. Pelleted cells were resuspended in 100 μL/well Alexa647 conjugated Goat anti-human IgG Fc (Jackson, #109-605-098) 1:500 diluted in 1% BSA/1×PBS (Ca+/Mg+) for 30 minutes at 4° C. in the dark. Cells were then washed two times as described above. After the final wash, cells were resuspended in 100 μL 1% BSA/1×PBS (Ca+/Mg+) and fluorescence values were measured with a FACS Canto II cytometer (BD Biosciences). The amount of cell surface bound anti-P-Cadherin antibody was assessed by measuring the mean fluorescence (MFI).

[2] = molecular target: T1, human P-cadherin expressed on cells; test: FACS on NCI-H1650 cells
[3] = molecular target: T2, P-Cadherin ECD domain 1+2 (aa 108-348) (human, UniProt P22223 108-348); test: direct ELISA, coated antigen
T2 construct: range 108-348; also called huCDH3 ECD Domain1 + 2
T2 sequence (P22223 108-348 limits assumed): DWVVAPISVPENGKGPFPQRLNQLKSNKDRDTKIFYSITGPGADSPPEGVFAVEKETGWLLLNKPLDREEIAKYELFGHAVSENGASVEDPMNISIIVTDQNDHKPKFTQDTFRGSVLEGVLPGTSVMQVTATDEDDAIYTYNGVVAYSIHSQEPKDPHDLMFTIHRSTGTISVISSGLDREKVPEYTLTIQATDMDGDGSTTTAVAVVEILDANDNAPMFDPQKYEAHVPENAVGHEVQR
Method: (§1) The binding domains of the antibody drug conjugates to human P-Cadherin extra cellular domain (ECD) were determined by a direct protein binding ELISA. 96-well high protein binding ELISA plates (Nunc) were coated overnight at 4° ° C. with antigens in coating buffer. All wells were washed three time with PBS/0.5%. Tween-20 (v/v) and all the following wash steps in the assay were performed the same. The wells were then blocked for one hour with 2% BSA (Bovogen)/1×PBS (Ca+/Mg+) (Gibco) and washed three times. For the primary antibody binding, the testing antibodies including the BMKs and our antibodies serially diluted in 2% BSA/1×PBS (Ca+/Mg+) were added to the relevant wells and incubated at ambient temperature for two hours. Plates were washed three times prior to the addition of 100 μL of secondary antibody Goat anti-Human-IgG-F(ab′)2-HRP (Jackson) diluted in 2% BSA/1×PBS (Ca+/Mg+). Plates were incubated at room temperature for one hour, followed by six washes as describe above.
(§2) For the binding detection, 100 μL Tetramethylbenzidine (TMB) Substrate solution (Invitrogen) was added to all wells before stopping the reaction with 100 μL 2M HCl. The extent of the testing Abs binding to P-Cadherin ECD (i.e. huCDH3 ECD, Uniprot ID: P22223 aa108-654), P-Cadherin ECD domain 1 (aa 108-236), P-Cadherin ECD domain 1+2 (aa 108-348), P-Cadherin ECD domain 1+2+3 (aa 108-461), P-Cadherin ECD domain 1+2+3+4 (aa 108-550) proteins were determined by measuring the OD450-OD540 absorbance using the SpectraMax® M5e microplate reader. EC50 values were obtained by the four-parameter non-linear regression analysis using GraphPad Prism software.

[4] = molecular target: T3, P-Cadherin ECD domain 1 (aa 108-236) (human, UniProt P22223 108-236); test: direct ELISA, coated antigen
T3 construct: range 108-236; also called huCDH3 ECD Domain1
T3 sequence (P22223 108-236 limits assumed): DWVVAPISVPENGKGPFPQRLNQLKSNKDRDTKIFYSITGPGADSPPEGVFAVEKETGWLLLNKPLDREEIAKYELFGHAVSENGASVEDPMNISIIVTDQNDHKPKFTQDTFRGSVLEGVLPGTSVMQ
Method: as §1, §2

[5] = molecular target: T4, P-Cadherin ECD domain 1+2+3 (aa 108-461) (human, UniProt P22223 108-461); test: direct ELISA, coated antigen
T4 construct: range 108-461; also called huCDH3 ECD Domain1 + 2 + 3
T4 sequence (P22223 108-461 limits assumed): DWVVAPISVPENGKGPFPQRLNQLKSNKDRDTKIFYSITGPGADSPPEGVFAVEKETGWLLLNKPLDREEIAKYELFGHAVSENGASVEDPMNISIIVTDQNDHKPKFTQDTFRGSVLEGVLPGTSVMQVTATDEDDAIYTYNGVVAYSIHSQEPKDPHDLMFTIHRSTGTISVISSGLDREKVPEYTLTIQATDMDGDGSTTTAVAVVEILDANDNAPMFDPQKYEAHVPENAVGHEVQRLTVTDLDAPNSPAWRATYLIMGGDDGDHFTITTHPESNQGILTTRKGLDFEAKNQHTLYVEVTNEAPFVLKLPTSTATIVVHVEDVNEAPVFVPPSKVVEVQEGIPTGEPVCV
Method: as §1, §2

[6] = tested on: NCI-H1650 cells; test: Cytotoxicity assay of ADC (Cell Titer Glo) on NCI-H1650; type: cell-based, human; settings: NCI-H1650, 5 days
[7] = tested on: A549 cells; test: Cytotoxicity assay of ADC (Cell Titer Glo) on A549; type: cell-based, human; settings: for IC50: A549 (P-cadherin low expressing), 5 days, read-out: IC50 (nM), ADC toxicity; for Max Inh %: A549, 5 days
[8] = tested on: HCC-1954 cells; test: Cytotoxicity assay of ADC (Cell Titer Glo) on HCC-1954; settings: HCC-1954, 5 days; for IC50: read-out: IC50 (nM), ADC cytotoxicity
[9] = tested on: HCC-70 cells; test: Cytotoxicity assay of ADC (Cell Titer Glo) on HCC-70; settings: HCC-70, 5 days; for IC50: read-out: IC50 (nM), ADC cytotoxicity
[10] = tested on: HT-29 cells; test: Cytotoxicity assay of ADC (Cell Titer Glo) on HT-29; settings: for Max Inh %: HT-29, 5 days; for IC50: read-out: IC50 (nM), ADC cytotoxicity, HT-29 (P-cadherin low expressing), 5 days
[11] = tested on: MDA-MB-453 cells; test: Cytotoxicity assay of ADC (Cell Titer Glo) on MDA-MB-453; type: cell-based, human; settings: for IC50: MDA-MB-453 (P-cadherin low expressing), 5 days, read-out: IC50 (nM), ADC toxicity; for Max Inh %: MDA-MB-453, 5 days
[12] = molecular target: T1, human P-cadherin expressed on cells; test: cell-based or functional assay
[13] = molecular target: T1, human P-cadherin expressed on cells; test: cell-based or functional assay; remark: listed apart in the source
[14] = molecular target: T1, human P-cadherin expressed on cells; test: cell-based or functional assay; remark: listed apart in the source
[15] = molecular target: T3, P-Cadherin ECD domain 1 (aa 108-236); test: direct ELISA on coated huCDH3 ECD Domain1, goat anti-human IgG F(ab')2-HRP detection
Method: as §1, with “Plates were washed three times prior to the addition of 100 μL of secondary antibody Goat anti-Human-IgG-F(ab′)2-HRP (Jackson) diluted in 2% BSA/1×PBS (Ca+/Mg+). Plates were incubated at room temperature for one hour, followed by six washes as describe above.” left out
as §2, with “EC50 values were obtained by the four-parameter non-linear regression analysis using GraphPad Prism software.” left out

[16] = molecular target: T1, human P-cadherin expressed on cells; test: FACS on HCT-116 cells after 1 day in human serum at 37 C
Method: (§3) The antibody stability in human serum was tested by FACS. Briefly, human serum was freshly isolated by centrifuging the fresh blood twice at 4000 rpm for 10 minutes. […] As a control, antibodies serum mix was frozen immediately without 37° C. incubation. For the FACS analysis, the samples from different time points were free-thawed simultaneously at 4° C. […] The cells were washed twice with 1% BSA/1×PBS (Ca+/Mg+). Alexa647 conjugated Goat anti-human IgG Fc (Jackson, #109-605-098) 1:500 diluted in 1% BSA/1×PBS (Ca+/Mg+) were added to the cells and incubated at 4° C. for 30 minutes. Cells were washed twice in the same buffer and the mean fluorescence (MFI) of stained cells was measured using a FACS Canto II cytometer (BD Biosciences) and analyzed by FlowJo. Wells containing no antibody or secondary antibody only were used to establish background fluorescence. Four-parameter non-linear regression analysis was used to obtain EC50 values for cell binding using GraphPad Prism6 software.

[17] = molecular target: T1, human P-cadherin expressed on cells; test: FACS on HCT-116 cells after 4 days in human serum at 37 C
Method: as §3

[18] = molecular target: T5, P-Cadherin ECD domain 1+2+3+4 (aa 108-550) (human, UniProt P22223 108-550); test: direct ELISA, coated antigen
T5 construct: range 108-550; also called huCDH3 ECD Domain1 + 2 + 3 + 4
T5 sequence (P22223 108-550 limits assumed): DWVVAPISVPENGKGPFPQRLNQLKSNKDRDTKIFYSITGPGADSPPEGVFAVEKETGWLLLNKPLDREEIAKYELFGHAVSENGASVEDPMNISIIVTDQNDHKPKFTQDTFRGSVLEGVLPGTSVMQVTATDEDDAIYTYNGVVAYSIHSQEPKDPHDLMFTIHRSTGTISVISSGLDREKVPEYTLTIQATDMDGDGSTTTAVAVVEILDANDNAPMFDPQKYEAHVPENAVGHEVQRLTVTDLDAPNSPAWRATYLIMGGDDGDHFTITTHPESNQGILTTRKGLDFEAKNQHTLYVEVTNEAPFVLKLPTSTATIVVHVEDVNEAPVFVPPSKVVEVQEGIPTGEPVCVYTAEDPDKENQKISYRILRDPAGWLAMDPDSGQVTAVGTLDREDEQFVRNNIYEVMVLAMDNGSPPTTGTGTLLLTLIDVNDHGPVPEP
Method: as §1, §2

[19] = molecular target: T6, P-Cadherin ECD (huCDH3 ECD, Uniprot ID: P22223 aa108-654) (human, UniProt P22223 108-654); test: direct ELISA, coated antigen
T6 construct: range 108-654; also called extracellular domain of human P-cadherin
T6 sequence (P22223 other isoform, or with tags, fused parts or gaps limits assumed): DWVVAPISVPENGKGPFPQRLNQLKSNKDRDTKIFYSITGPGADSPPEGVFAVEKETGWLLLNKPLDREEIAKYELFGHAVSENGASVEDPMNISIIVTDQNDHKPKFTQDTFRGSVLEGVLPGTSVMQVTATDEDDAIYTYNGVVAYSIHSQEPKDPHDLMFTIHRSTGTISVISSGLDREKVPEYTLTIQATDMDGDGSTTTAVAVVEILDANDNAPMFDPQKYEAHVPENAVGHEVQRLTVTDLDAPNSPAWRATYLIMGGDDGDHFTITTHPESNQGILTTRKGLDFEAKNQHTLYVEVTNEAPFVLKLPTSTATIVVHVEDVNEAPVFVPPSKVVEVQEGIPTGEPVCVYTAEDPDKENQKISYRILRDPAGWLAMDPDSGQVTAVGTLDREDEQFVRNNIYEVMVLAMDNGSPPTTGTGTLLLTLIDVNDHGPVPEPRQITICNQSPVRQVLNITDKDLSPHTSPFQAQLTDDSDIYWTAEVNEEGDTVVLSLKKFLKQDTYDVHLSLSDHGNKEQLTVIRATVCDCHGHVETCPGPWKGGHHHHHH
Method: as §1, §2

[20] = molecular target: T2, P-Cadherin ECD domain 1+2 (aa 108-348); test: direct ELISA on coated huCDH3 ECD Domain1+2, goat anti-human IgG F(ab')2-HRP detection
Method: as §1, with “Plates were washed three times prior to the addition of 100 μL of secondary antibody Goat anti-Human-IgG-F(ab′)2-HRP (Jackson) diluted in 2% BSA/1×PBS (Ca+/Mg+). Plates were incubated at room temperature for one hour, followed by six washes as describe above.” left out
as §2, with “EC50 values were obtained by the four-parameter non-linear regression analysis using GraphPad Prism software.” left out

[21] = molecular target: T1, human P-cadherin expressed on cells; test: FACS on HCT-116 cells after 7 days in human serum at 37 C
Method: as §3

[22] = molecular target: T1, human P-cadherin expressed on cells; test: FACS on HCT-116 cells after 14 days in human serum at 37 C
Method: as §3

[23] = molecular target: T1, human P-cadherin expressed on cells; test: cell-based or functional assay; remark: listed apart in the source
[24] = molecular target: T1, human P-cadherin expressed on cells; test: cell-based or functional assay; remark: listed apart in the source
[25] = molecular target: T1, human P-cadherin expressed on cells; test: FACS affinity test on NCI-H1650 cells, quantitative beads

Molecule | Max OD [3] [OD450-OD540] | Max OD [4] [OD450-OD540] | Max OD [5] [OD450-OD540] | Max Inh % [6] [%] | IC50 [7] [nM] | Max Inh % [7] [%] | Max Inh % [8] [%] | IC50 [8] [nM] | Max Inh % [9] [%] | IC50 [9] [nM] | Max Inh % [10] [%] | IC50 [10] [nM] | IC50 [11] [nM] | Max Inh % [11] [%] | other results
Isotype control (non-related hIgG1 antibody) | 0.014 | 0.014 | 0.015 |  |  |  |  |  |  |  |  |  |  |  | Max MFI [1]: 402 MFI; Max MFI [2]: 331 MFI
CC[C@H](C)[C@@H]([C@@H](CC(=O)N1CCC[C@H]1[C@H](OC)[C@@H](C)C(=O)N[C@H](C)[C@@H](O)c1ccccc1)OC)N(C)C(=O)[C@@H](NC(=O)[C@H](C(C)C)N(C)C(=O)OCc1ccc(NC(=O)[C@H](CCCNC(N)=O)NC(=O)[C@@H](NC(=O)CCCCCN2C(=O)C=CC2=O)C(C)C)cc1)C(C)C [Free payload control (MC-VC-PAB-MMAE), MC-VC-PAB-MMAE] ({Hexanoyl(6-maleimido)}-V[Cit][PABC][NMeV]V[Dil][Dolaproine]-X1) |  |  |  | 1 | > 10 | −5.4 | 20.1 | > 10 | 1.3 | > 10 | −0.1 | > 10 | > 10 | −0.6 | IC50 [6]: > 10 nM
CC[C@H](C)[C@@H]([C@@H](CC(=O)N1CCC[C@H]1[C@H](OC)[C@@H](C)C(=O)N[C@H](C)[C@@H](O)c1ccccc1)OC)N(C)C(=O)[C@@H](NC(=O)[C@@H](NC)C(C)C)C(C)C [Free drug (MMAE), mono-methyl auristatin E] (H-[NMeV]V[Dil][Dolaproine]-X1) |  |  |  | 81 | 1.37 | 89.2 | 97.7 | 0.05 | 87.2 | 0.23 | 95.5 | 0.52 | 1.28 | 96.7 | 
B1 | 0.16 | 0.19 | 0.95 |  |  |  |  |  |  |  |  |  |  |  | EC50 [1]: 0.17 nM; ADC Cytotoxicity on HCC-70, IC50 [12]: 0.065 nM; EC50 [2]: 0.075 nM; Internalization of HCC-1954 cells in HCS assay, EC50 [13]: 0.023 nM; Internalization of NCI-H1650 cells in HCS assay, EC50 [14]: 0.22 nM; binding result [15]: no binding (tested: about 20 nM); EC50 [16]: 0.15 nM; EC50 [17]: 0.18 nM; EC50 [5]: 0.2 nM; EC50 [18]: 0.17 nM; Max OD [18]: 0.75 OD450-OD540; EC50 [19]: 0.23 nM; Max OD [19]: 0.65 OD450-OD540; binding result [20]: no binding (tested: about 20 nM); EC50 [21]: 0.17 nM; EC50 [22]: 0.18 nM; ADC Cytotoxicity on NCI-H1650, IC50 [23]: 0.027 nM; ADC Cytotoxicity on HCC-1954, IC50 [24]: 0.011 nM; Kd [25]: 0.168 nM
